In patent US20190218292A1 one finds OD Ratio variant/IgG1 WT and OD 450 nm data, which are given here for four substances.

Test [1] has as its target hCD32aR (human) (UniProt P12318). The test is described as follows: ELISA, coated hCD32aR, 0.5 µg/ml. (In general: An ELISA detects its analyte on a solid surface through an enzyme-linked reagent.)
The target in test [2] is FcRn receptor (recombinant protein human FcRnα and β2-microglobulin) (human) (UniProt P55899). The test is described as follows: ELISA at pH 6, coated FcRn.
Chain of FcRn receptor (recombinant protein human FcRnα and β2-microglobulin) (human) (P55899 24-297 limits assumed, chain 1 of 2): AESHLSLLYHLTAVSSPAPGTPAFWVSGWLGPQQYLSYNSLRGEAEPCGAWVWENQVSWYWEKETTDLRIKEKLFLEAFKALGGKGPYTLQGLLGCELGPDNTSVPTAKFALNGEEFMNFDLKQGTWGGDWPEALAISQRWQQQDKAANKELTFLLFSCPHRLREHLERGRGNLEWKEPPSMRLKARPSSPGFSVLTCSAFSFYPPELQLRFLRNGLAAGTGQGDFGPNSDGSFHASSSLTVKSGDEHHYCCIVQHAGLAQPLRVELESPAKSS
Chain of FcRn receptor (recombinant protein human FcRnα and β2-microglobulin) (human) (P61769 21-119 limits assumed, chain 2 of 2, further chain): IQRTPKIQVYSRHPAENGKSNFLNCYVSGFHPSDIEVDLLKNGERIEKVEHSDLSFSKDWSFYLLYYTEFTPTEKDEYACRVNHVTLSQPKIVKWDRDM
The target in test [3] is cynomolgus monkey PD1 antigen (cynomolgus monkey) (UniProt B0LAJ3). The test is described as follows: ELISA, coated cynomolgus PD1, 0.2 µg/ml.
Chain of cynomolgus monkey PD1 antigen (cynomolgus monkey) (B0LAJ3 entry or part of it limits assumed, form in doubt): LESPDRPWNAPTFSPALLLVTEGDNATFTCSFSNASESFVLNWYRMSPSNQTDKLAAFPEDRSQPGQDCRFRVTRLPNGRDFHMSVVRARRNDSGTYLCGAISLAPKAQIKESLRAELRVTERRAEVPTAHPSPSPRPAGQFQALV
In test [4] the target is hCD16aV (human) (UniProt P08637). Put plainly: ELISA, coated hCD16aV, 0.5 µg/ml.
Test [5] has as its target hCD32b (human) (UniProt P31994). The test is described as follows: ELISA, coated hCD32b, IgG aggregated with anti-CK F(ab')2-HRP.
Test [6] has the same target. Put plainly: ELISA, coated hCD32b, 0.5 µg/ml.
Test [7] concerns the target cynomolgus monkey PD1 antigen (cynomolgus monkey) (UniProt B0LAJ3). The test is described as follows: ELISA, coated cynomolgus PD1.
In test [8] the target is hCD32aH (human) (UniProt P12318). Put plainly: ELISA, coated hCD32aH, 0.5 µg/ml.
Chain of hCD32aH (human) (P12318 36-218): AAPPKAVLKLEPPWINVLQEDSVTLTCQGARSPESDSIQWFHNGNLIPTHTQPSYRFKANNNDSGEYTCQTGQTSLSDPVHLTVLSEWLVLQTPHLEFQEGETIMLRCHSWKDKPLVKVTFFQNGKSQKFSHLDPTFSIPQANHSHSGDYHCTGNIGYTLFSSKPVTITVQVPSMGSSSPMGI
Test [9] concerns the target hCD16aV (human) (UniProt P08637). The test is described as follows: ELISA, coated hCD16aV, IgG aggregated with anti-CK F(ab')2-HRP.
Test [10] addresses human CD64 receptor (hFcγRI) (human) (UniProt P12314). The test is described as follows: ELISA, coated hCD64.
For test [11] the target is unchanged. Put plainly: ELISA, coated hCD64, 0.5 µg/ml.
The target of test [12] is FcRn receptor (recombinant protein human FcRnα and β2-microglobulin) (human) (UniProt P55899). The test is described as follows: ELISA at pH 6, coated FcRn, 10 µg/ml.
Test [13] concerns the target human PD1 antigen (recombinant protein) (human) (UniProt Q15116). The test is described as follows: ELISA, coated human PD1.
Test [14] shares this target. Put plainly: ELISA, coated human PD1, 0.2 µg/ml.
Test [15] addresses murine PD1 antigen (murine) (UniProt Q02242). Put plainly: ELISA, coated murine PD1.
For test [16], the target named is hCD32aH (human) (UniProt P12318). Put plainly: ELISA, coated hCD32aH, IgG aggregated with anti-CK F(ab')2-HRP.
The target of test [17] is hCD32aR (human) (UniProt P12318). The test is described as follows: ELISA, coated hCD32aR, IgG aggregated with anti-CK F(ab')2-HRP.

Chain of human PD1 antigen (recombinant protein) (human) (Q15116 25-167 limits assumed): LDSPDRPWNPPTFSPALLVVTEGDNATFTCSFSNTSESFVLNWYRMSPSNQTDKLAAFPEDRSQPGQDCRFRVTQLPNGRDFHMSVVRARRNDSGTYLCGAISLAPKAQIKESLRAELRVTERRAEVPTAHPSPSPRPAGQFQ
Chain of hCD32b (human) (P31994 46-217): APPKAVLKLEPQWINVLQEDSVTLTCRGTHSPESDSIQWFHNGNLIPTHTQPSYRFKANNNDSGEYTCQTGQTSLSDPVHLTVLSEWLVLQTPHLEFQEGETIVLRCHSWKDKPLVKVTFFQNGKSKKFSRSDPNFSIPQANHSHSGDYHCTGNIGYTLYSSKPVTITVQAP
Chain of human CD64 receptor (hFcγRI) (human) (P12314 16-288 limits assumed): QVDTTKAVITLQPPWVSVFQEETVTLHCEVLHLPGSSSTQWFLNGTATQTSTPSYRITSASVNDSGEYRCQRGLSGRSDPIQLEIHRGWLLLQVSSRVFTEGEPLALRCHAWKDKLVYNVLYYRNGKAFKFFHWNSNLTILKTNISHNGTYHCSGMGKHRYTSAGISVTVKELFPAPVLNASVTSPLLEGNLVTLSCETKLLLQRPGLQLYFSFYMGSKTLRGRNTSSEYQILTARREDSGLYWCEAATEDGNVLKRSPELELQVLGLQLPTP
Chain of murine PD1 antigen (murine) (Q02242 25-167 limits assumed): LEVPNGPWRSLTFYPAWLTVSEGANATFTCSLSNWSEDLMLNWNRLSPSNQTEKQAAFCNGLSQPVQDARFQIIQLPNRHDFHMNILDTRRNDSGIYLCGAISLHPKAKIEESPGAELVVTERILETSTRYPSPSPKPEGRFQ

In the case of “IgG1_C6A_74 nivolumab (V259I/N315D/N434Y) (antibody)”, the OD Ratio variant/IgG1 WT with hCD32aR (human) [1] was 0.65; in test [3], 0.95; in the test with hCD16aV (human) [4] it was 1.31; with hCD32b (human) [6], 0.24; with hCD32aH (human) [8] it was 1.02; in [11], 0.98. For the same substance, the OD Ratio variant/IgG1 WT was found to be 7.47 in test [12] and 1.1 in test [14]. In test [2], the OD 450 nm at 10 µg/ml turned out to be 2.37 OD 450 nm. Also, the OD 450 nm at 0.5 µg/ml with hCD32b (human) [5] was determined as 0.481 OD 450 nm; with hCD16aV (human) [9] it was 1.07 OD 450 nm; in test [10], 1.24 OD 450 nm; with hCD32aH (human) [16], 1.65 OD 450 nm; in the test with hCD32aR (human) [17], 2.43 OD 450 nm. Further, the OD 450 nm at 0.2 µg/ml in test [7] amounted to 2.28 OD 450 nm; in [13], 2.87 OD 450 nm; in test [15] it was 0.235 OD 450 nm.
For “IgG1_WT nivolumab (from UniProt P01857 1-330) (antibody)”, in test [2], the OD 450 nm at 10 µg/ml turned out to be 0.317 OD 450 nm. Besides, the OD 450 nm at 0.5 µg/ml in test [10] came out at 1.26 OD 450 nm.
As to “IgG1_WT pembrolizumab (from UniProt P01857 1-330) (antibody)”, the OD 450 nm at 10 µg/ml in [2] was found to be 0.379 OD 450 nm. Also, in test [10], the OD 450 nm at 0.5 µg/ml is 0.777 OD 450 nm.
Take “IgG1_C6A_74Del294 nivolumab (V259I/Del294/N315D/N434Y) (antibody)”: the OD Ratio variant/IgG1 WT was determined as 0.06 in the test with hCD32aR (human) [1]; 0.96 in test [3]; 0.15 with hCD16aV (human) [4]; 0.06 with hCD32b (human) [6]; 0.05 with hCD32aH (human) [8]; 0.05 in test [11]. The OD Ratio variant/IgG1 WT in test [12] was found to be 7.27; in test [14], 1.06. For the same substance, in test [2], the OD 450 nm at 10 µg/ml was 2.3 OD 450 nm. Moreover, the OD 450 nm at 0.5 µg/ml with hCD32b (human) [5] was 0.132 OD 450 nm; with hCD16aV (human) [9] it was 0.121 OD 450 nm; in test [10] it was 0.0574 OD 450 nm; with hCD32aH (human) [16] it was 0.0798 OD 450 nm; in the test with hCD32aR (human) [17], 0.242 OD 450 nm. The values for the OD 450 nm at 0.2 µg/ml in test [7], in test [13] and in test [15] were 2.29 OD 450 nm, 2.77 OD 450 nm and 0.31 OD 450 nm, respectively.
